experiment: soluble on expression in E. coli; label from the status in PepcDB or PDB records

Sequence	soluble on expression in E. coli
MAHHHHHHMMRLLRNNVKNMFLKNCFLVRNTNVKCWRTDRFHNYNMWNTVENNGIRGFSSSSFEEIKKMNMFTAINSAMHNVFESNPNSVLLGEDVAFGGVFRCSLDLLKKYGNMRVFNTPLCEQGIIGFAIGLAENGFTTIAEIQFGDYIFPAFDQIVNDVAKYRYRSGSSFDVGKLTIRSTWGAVGHGGLYHSQSPEAFFAHAAGIKIIVPSDAYKAKGLLLSAINDPNPCLFFEPKILYRSSVCDVPTGPYQLELGKADVVRQGSDVTIVTWGSLVHKMKNAAEILSKKHNIECEVIDLQSIIPWDIETVQKSVEKTGRLLITHEAQLTNGFGAEIAAKIQERCFYNLHTPIKRVCGYDTPFPHVYEPFYMPDAHKVIYEVKKMMK	not soluble
MASFIDLSSADLSPLSGALHGPDRVARALLIQGGALVPPRPMLWPCAGDMLNGLHILGDLHAPDVDLLVAKRVVAGGSGAHLKLDDQLVYAEGAYPYYVQHWYQHDIARQAWDFDAPVTHRLDRAFVITHFNFVWGHWLTEMYPKLFVIRALNAAGITAPLLLPRTAPGYVARIVRMMLPDQEIVTYDPRDEAVEIGAALLPHMLNRNYVFHDFLRWNLEREALSFTKGGDADMLFVSRGGVRTAQSFRELENEAEIEGLAQEAGLTLVRPETLGWDQQARLFSRARLVAGEFGSGLHNALLSPQGCQVVSLNWLVEVQSRIGNFRRHDVGYILPADGQARLYSIEPQANQPFTIDPVEFRQKLAIAVDRAQARKAMAGWDDAPFPVDTPELRLLEHHHHHH	soluble
LADTSPMDKKGRKAEDALVVNVRANLYWWEFEYPDYGIITSQELIVPTDQRVYFNLKASDVKHSFWIPSVGGKLDTNTDNENKFFLTFDSKRSKEAGDMFFGKCAELCGPSHALMDFKVKTMSAKEFQGWTKEMKNYKSTAESDLAKQGEELFKEKNCLSCHAVEPNDKRAEAARTAPNLATFGERTKVAGVKEANKENVKAWLKDPDSIKPGNKMTGTYPKLSDSETNALYEYLKGLKAE	not soluble
MVLPGNCSTSAALCMQFLTQLASVAIDQAYQPPQQPAYNPHEKLFVSYRSVPPPGSSPSSAAVPIRFSSYSSVGSNIRGLNSPTLHPGSIEPPLTPGNYRLYSMRFCPYAQRVLIYLAKKNIPVEVVNVNPDRSPNWYLPKSPIGRVPALEINGKVVWESNVIVEYLDELFPTNTILPRDAYEKAHQKILVERLSPIMNALFEFYGSSNNPQAQRQNDMNVHSALRNSENLLRDTFYGGRQPGYADYLMWPFLERLQLLTMSPNSQFRYFPGLHYPKIGAYIARMQNQPEVLGFCKHDFFLKKTGEKIW	not soluble
MIAKHIDRFPLLKLDRVIDWQLIEQYLNRQKTRYLRDHRGRPAYPLLSMFKAVLLGQWHSLSDPELEHSLITRIDFNLFCRFDELSIPDYSTLCRYRNRLAQDNTLSELLELINRQLTEKGLKIEKASAAVVDATIIQTAGSKQRQAIEVDEEGQISGQTTPSKDSDARWIKKNGLYKLGYKQHTRTDAEGYIEKLHITPANAHECKHLSPLLEGLPKGTTVYADKGYDSAENRQHLEEHQLLDGIMRKAHRNRPLTEVQTKRNRYLSKTRYVVEQSFGTLHRKFRYARAAYFGLVKVSAQSHLKAMCLNLLKAANRLSAPAAA	not soluble
MPSIRVVNLKKYFGKVKAVDGVSFEVKDGEFVALLGPSGCGKTTTLLMLAGIYKPTSGEIYFDDVLVNDIPPKYREVGMVFQNYALYPHMTVFENIAFPLRARRISKDEVEKRVVEIARKLLIDNLLDRKPTQLSGGQQQRVALARALVKQPKVLLFDEPLSNLDANLRMIMRAEIKHLQQELGITSVYVTHDQAEAMTMASRIAVFNQGKLVQYGTPDEVYDSPKNMFVASFIGNPPTNFLRDFSVSVENKQTILKRDDVIIKLPEPVDVKLKEVVVGIRPEHCRISRERVENSIPGVVYVVEPLGRDIIVNVKTEKGEIIKVFGDTGKAPQPGENVFLVPDLRKIHLFNPETEETIL	soluble
MGSDKIHHHHHHMDWGIYMKQLPFKAVAVDVDGTFENDKKEYDHEMFGEILYRLHKHGAHFIIASGRPAGRLSDDFGDFIDSVDFVADNGAVLVRDGKIIRTTCFSKKGILHLIDYMHQRYPGSVTTLLISGVKHSYFLKSTPPEFKRSHHYFYPNSIEIDDFSQIPADDQYTKITVDYPSKVRHELEYGFNSRSMEKIHVTTSGWNYMDIIPQGVNKATGLKEFLAYLDVPRSELIAFGDGENDIEMLKLAGLSYAMENGQNSVKKIANFIAPSNNDNGVFKVLNHYLNEVNK	not soluble
MLKNLRIRKFEPEEEYVYFTYSIKNDKREKSKELIREYTTLLQKAIDYLWNLTKIQVRKKNGNYKITLPKKREVYKPLREELEKINHLASHYVDKAINDAFSILKSWRKRAIKGRASIEKPRVKKAYVRIKTTLRKVVGESVRITVRPHEYITFSWSKSWFSRRVRELELGEPIIKEEKVYLPFRYKLPWATPVDFLAIDSNLYTLDAYDGEKFVTISLKQLYSLKYSMEVKRAKVQSFASKHTKRGRELMRKYSHRERNRVLDFVHKFVNTLLDLYPMTFFAVEKLNKESMFKDANDSLSRKISRTVWGSIHRVLKYKAPLYGSFVKEVNPRFTSRSCPRCGFVSRKVGKTFECERCGFKLDRQLNASLNIYLKMCGFPHIREIARVWVGVIPLMGRRGMNGFPRDFGEAQGLRIDIEYHEIPLEHHHHHH	soluble
MATTTMTMIQALRSAMDVMLERDDNVVVYGQDVGYFGGVFRCTEGLQTKYGKSRVFDAPISESGIVGTAVGMGAYGLRPVVEIQFADYFYPASDQIVSEMARLRYRSAGEFIAPLTLRMPCGGGIYGGQTHSQSPEAMFTQVCGLRTVMPSNPYDAKGLLIASIECDDPVIFLEPKRLYNGPFDGHHDRPVTPWSKHPHSAVPDGYYTVPLDKAAITRPGNDVSVLTYGTTVYVAQVAAEESGVDAEVIDLRSLWPLDLDTIVESVKKTGRCVVVHEATRTCGFGAELVSLVQEHCFHHLEAPIERVTGWDTPYPHAQEWAYFPGPSRVGAALKKVMEV	soluble
MKRVLIVGATGTIGGVVRQTLLNETDNQLTLFARSANRLKTSERESVIAGDVTKDSDLDKAIAGQDVVFVALSGSLGRFAQKIVAAMDRNKVSRLLFITSMGIYDEIPASVGASGNLSSNPMLRTYREAADVVEASDLNYTLIRPGWFTGGPVDYEITKKGEPFGGHDVSINSIADFVKNAIVDNDYYAHDSVGLNAK	not soluble
MTEKHKTMGKFKVIVLAGTAGTGKSTIAGELIHEFKDIYPDLKFIEGDDLHPPANVEKMTRGIPLNDDDRWDWLKKVAVESTKAAASTKEHLSIVACSSLKKKYRDLIRHTCPESEFHFIFLYASKIEVLKRLKTRKGHFMKADMMESQFRDLELPDINDETDCDIVPLDFKTFYQIEKDVIQVVKSKVLNIE	not soluble
MSLKSKVLVIDDEPDIRELLTLTLSRMGLICDAVSDFKQGIEHIKQNYYSLVLTDMRLPDGDGIEIVKFIQKYKPQLPVAVITAYGNVEGAVNTLKAGAFDYVSKPVDLKMLRELVKTALSMQNPSTESPDEGLLVGESLIMQQLRESIHKLARSQAPVFIQGDSGVGKELVAQLIHANGPRKDKPFIPVNCGAIPGELMESEFFGHKKGSFTGAISDKTGLFVAAHGGTLFLDEIAELPLAMQVKLLRAIQEKAIKPIGELYEIPVDVRILSASHKNLIEEINAGRFRQDLYYRINVIELRVPTLMERLSDIPCLTEAILKKLSKNQNRNLVKINPSCFEILSRYHFPGNVRELENILERAMAMCEGEVIEPSEGHHHHHH	soluble
MGLLLYRELVHKLKTKYKKIAGKGENQKDKTLPWHLETDQLTNRHPNHKVRIPYIDEVFDMLAKMTAKNQLTLPKSVTTAVGAGEYFEIEVRNGQIVLTPVRIQRADAVRAKLAELDLGERDIMDAVTWARQPVKGSATE	not soluble
MGSDKIHHHHHHMETPMTMSQVDAVVRDPASVVTAIESRFSCRAFSPDRPVSRQQVEEILRIARCAASSTNTQPWKVYVLQGDRRDALVAQVCAAHDATRADSSLTAEYGEVDGYYPSEWVSPYIDRRRHNGWTLYGHLGIGKGEKDKMHAQGQRNYRFFDAPVGLMFTIDRVMGRGSLIDYGMFLQTLMLAARALGLHTCPQAAWNNCAKIVLPFIGAGANEMLVCGMALGYADQSAPVNTYRTPRETVESFTRWI	not soluble
MGSDKIHHHHHHMKILITGATGFVGRRLVKSLSEHQLIILTRNINNAKNNLGSHHQYWQTLTDKSDLNDIDAVINLAGEPIVNKRWSNKQKKLICDSRWDITAALTQLISKSTTPPHTFISASAVGYYGRQDQNPVDETSGFHAEFSHDICQKWEDLALQAQSQQTRVCITRIGIVLGKNGGALAKMLPPFKLGLGGPIGSGEQGMSWIHVDDLISLMAYLLSNTDLQGIFNATAPQPVSNAKFAKALGNALNRPAKITTPPLALRLAMGEMSELLTTGQFVLPKRTLAAGFEFKYSDINSALDHITHSAN	not soluble
MKDSKFPYYFSNALLMLVPRFVYRAQAKRLLSTLTEAEKQYCLERVNYYNKCGQPFTVDSREQSYAKIGEFKKTKGWTYFFDTRQVIRYFPSEFTFNYINGDVTHIPNVPSFIKSRPIHGDNQNSVVLKLNQIRHFKFVDDEMSYHDKKDMVAWRGVGFQPHRCKVIQAFYDHPRCNIGQTRPQEGQPWEKGFMSIEEQLQYKFLLCIEGNDVATNLKWAMSSNSLVIMSKPKYETWFMEGKLEAGIHYVEVQDDYSDLPEKMDYYLANEQEALAIIENAHQWVEQFKDKRKERLISLMVADKYFTLSHQQLEHHHHHH	soluble
AIAHGVEFAPLERQHGSQVLALLRGTLLVPLPRLHQRLEEAYERDARLGLAQVALCRLAGNAEKVVGVLLARVATRRTCCAQVYIDAVAVDAVFQGQGIGSRLLLRVLTPCLPDGLEVREVFLHTPLQATELVAFYRSCGFESDDEVIDNYYPRRWMPQAQALVLRWRPPTAAQHQHEERKGPQDADVS	soluble
MIILYDFLQESSVMPRSKNDSKLKKKSALQSKFKEQQLNHGSKEHKSKFKFSQRKAKKKGPGMTHLPGNIYTLFTPVNGPKSKDEWIDTSKIMLDLHIDNMSSSDYIPSAIDRTDLVMVQSVHLLRKTGGRGLFAREDIPKGTCIGIYTGEVYSEQEFEQYLKEHVGSDKSYAMYVGGRVIDAARKGNLTRYINFSDSQDNAEFVETTLNRKKVAKVITTKNIKAGQQLLINYNTYEEQASRYYYFLNPGDGWLSAQEFYQTYQSQYRLEQMPYNLEGFDLKAGDRVLMTQIGRIILANYSLAKEQELNASDIDLPFLKVGSDEKILDFDEADTFTPLMAACYLGQVENVKWLIEHGANIDQQQSHSGHCPLSLTLKGYSLAKDTQKYIDIIQLLIKNQVNLLVHDRSDKTFLHNAALVLNNLDFQSVVKFLIGQNPIDINEYFTYIDENDFDIVMHCYNNKLFDKALVLLAFYPDYFKRNYMSDNEGHNQFNINAFRKAIKDFNSNERSILLMQLRESGLHLPEDLLEQLGIMDSSITLESKFF	not soluble
MKRIADEELVREERAEESTQKWLQDAKFQEILGADSSHKSLFVLLSHPDGSQGILLANKSPFSEEKSDIEKLLATAQLQEISRNDIFGSYNIEIDPKLNLLKSQLIYPINDRLIAKYRQEEKFVIRETPELYETVTRPYIEKYQLNLNWVYNCLEKRSEVDKIVFEDPDNENGFVLLQDIKWDGKTLENLYVLAICHRHGLKSVRDLTGDDLEMLYNMRDKSLEAINQKYGLKTDQIKCYFHYQPSFYHLHVHFINLKYDAPASTTMSAILLDDVINNLELNPEHYKKSTLTFTRKNGDKLMEMFREALKN	not soluble
MGSDKIHHHHHHAQFKKFNLGKAIQAGKDAAQAISLSDADIAAMSKEYMEWMDKHNPLTKPDSEYGKRLERLTGNIKEVDGMKVNFGVYEVVDVNAFACGDGSVRICAGLMDVMTDEEVMAVIGHEIGHVIHTDSKDAMKNAYFRSAVKNAAGAASSQVAKLTDSELGAMAEALAGAQYSQKQEYEADAYGVEFCVKNNIDPYGMYKSLNKLLELSNGAPASSYMQRMFSSHPDTAKRVARAKELADKYKQ	not soluble

— the DeepSol protein solubility set
